Measurements: the DeepSol protein solubility set

Experiment: soluble on expression in E. coli; label from the status in PepcDB or PDB records

Question: For “MTNSIRIGTRKSPLALIHTNLVIQQIKQFFPDINCEIVPIITSGDLIQNKPLYDIGGKALFLKEIEQALLDKKIDLAVHSLKDVPGRMPEPLVIAAVLEREDPRDVFVCLKYKSIEELPQNAVIGSSAVRRKAFIQKIRPDLKVTVFRGNVDSRIKKLMTGEVDATILAYTGLKRLEVFNPEYCHLIEYSQMLPCIGQGVIAVEIRKDDNAMLEICNQINHLPTFELIKPERAFLEYLDANCRTPIAAYSQYLDANPRHLSKLAYREVLEGNTEALATAAYKSNRTDASTGLTYKLPLEVEFGKVSNIQTNFMLGNLDGSKITFHTETTNIKTSTEAGIKAAKMMLEAICK”, which “soluble on expression in E. coli” value is on record?
Answer: Its value is “soluble”.

Question: For “ETLPLMMFTANGGGYLTYANKWLKDYFGMLEIQSGKTEWTSLVNSSDTKQVRDEWEKAQTNQTHFRAQAKLKSKTAESALWHLISLVPVKNDLNQITSWTGFFVDI”, which “soluble on expression in E. coli” value is on record?
Answer: The value was “not soluble”.

Question: Which “soluble on expression in E. coli” value does the source give for “MLAILYDRIRPDERMLFERAEALGLPYKKVYVPALPMVLGERPKELEGVTVALERCVSQSRGLAAARYLTALGIPVVNRPEVIEACGDKWATSVALAKAGLPQPKTALATDREEALRLMEAFGYPVVLKPVIGSWGRLLAKVTDRAAAEALLEHKEVLGGFQHQLFYIQEYVEKPGRDIRVFVVGERAIAAIYRRSAHWITNTARGGQAENCPLTEEVARLSVKAAEAVGGGVVAVDLFESERGLLVNEVNHTMEFKNSVHTTGVDIPGEILKYAWSLAS” here?
Answer: The value was “soluble”.

Question: For “MNQINIEIAYAFPERYYLKSFQVDEGITVQTAITQSGILSQFPEIDLSTNKIGIFSRPIKLTDVLKEGDRIEIYRPLLADPKEIRRKRAAEQAAAKDKEKGA”, which “soluble on expression in E. coli” value is on record?
Answer: Its value is “soluble”.

Question: For “MSLQESSFVHLHNHTQFSVLQSTMAVPDLVAAAAKHNMPAVAITDHANMMGAFHFVNAVKKHNSAIANDSENTSQPIKPIIGCEFFVCEDHTDRTHKDNGYQMVILAKNKKGYHNLAKMSSMGFTKGFYYIPRIDKKLIETYKDDLIVLSGSLYGEIASKLLNLGENQAEESLVWWKETFGDDFYVEIMRHQQEDEERANEALIRLANKHDINLVATNNTYYADQKDANAHDILLCVKEGEKQATPIGRGRGYRYGLPNDQYYFKSAEEMKSLFKDLPQAISNTEAIANKVEAFELAREVLLPAFVIPEQFLDEADKTDAGKRGENAYLKHLTFEGAKRRYGELSEEIKDRLDFELSVIANTGYPGYFLIVEDFIREARKMGVSVGPGRGSAAGSAVAYCLKITNIDPIKYDLLFERFLNPERVSMPDIDIDFDDEGRSKVMDYVIEKYGQNQVAQIITYGTMAAKSAIRDTARVLDLPLYEADRIAKLIPDMSKLGKIFSMNEKEEGHHHHHH”, which “soluble on expression in E. coli” value is on record?
Answer: Its value is “soluble”.

Question: For “MRMENQKDLQENYLKVLERVELGSRVSGTVVNIMKDYVLVDIGYKSEGFIKIEEFENVPQVGDRLEAIVVRIGGELGLILSVEKLNSLNFQDKVYEYIQNKKIIKGKVLVELPNGYKIQINENVSGFMPFYLSSKSKDEKLKRGSVVEFYILEASEADGLRLILDRRTLEKERDLAKRIELVSSYNEEDVVDGVVERITEYGAIVKIKNFVTGILHKRNIAFNQVENVEDFVRVGDKLKLKIIKINPQTGKMELSLKALKANPWDSVDVKYKIDSIVKGKVVKILPFGAVIELDSELSGFLHISNFSWIRVVKSPQELIKLGQIVEVKILEIDKENQKISLGIKQINENPWERLTEKYPIGRVVQGVVTNITKTGAFVNIEEGIDAYVSKFDISWLEEIDPEEYFKIGDLVNGKVLEVDKRKRNVRLGIKQLEESPWEDFSKSYKKGDTIEVEIVEKKSKGFQVRVYNKIMGFISKIQLGDTKESSLETFEKLNVGDKLKVVITSIDSKDKSVLLSYREYENQRSREEISSYLFKGNDEESYKPFENLLKRDELEHHHHHH”, which “soluble on expression in E. coli” value is on record?
Answer: Its value is “soluble”.

Question: For “SFKADLGTIGIQLHTTYSRRIRKVKVMDNRKEPPFFNEDNVGPFYFKLPFYDPMELFIETLTGTCFELRVSPFEAVISVKGKIQRLEGIPICQQHLIWNNMELEDDYCLNDYNISEGCTLKLVLAMRGGPISTRKVPVEDPLRELAEYMDSSRDEVWEKTSCNKQVTFLVYREGDQLNFFRVVDRGDGTLTPLSESLSGGSVYNLYTDEDEETEPSPSGQQIIENSITMNKMKLLKAKMENMNLSKKVKPLAVRQAFL”, which “soluble on expression in E. coli” value is on record?
Answer: The value was “soluble”.

Question: For “MASFRSTLALVNSAKLSLSTRTMASHPLAGLLGKLNHVAIATPDLKKSSEFYKGLGAKVSEAVPQPEHGVYTVFVELPNSKIELLHPFGEKSPIQAFLNKNKDGGMHHICIEVRDIHEAVSAVKTKGIRTLGEKPKIGAHGKEVMFLHPKDCGGVLIELEQE”, which “soluble on expression in E. coli” value is on record?
Answer: Its value is “not soluble”.

Question: For “FGVWVLVPRSFPRCVWFQRSMAVVIRLQGLPIVAGTMDIRHFFSGLTIPDGGVHIVGGELGEAFIVFATDEDARLGMMRTGGTIKGSKVTLLLSSKTEMQNMIELSRRRFETANLDIPPANASRSGPPPSSGMSSRVNLPTTVSNFNNPSPSVVTATTSVHESNKNIQTFSTASVGTAPPNMGASFGSPTFSSTVPSTASPMNTVPPPPIPPIPAMPSLPPMPSIPPIPVPPPVPTLPPVPPVPPIPPVPSVPPMTPLPPMSGMPPLNPPPVAPLPAGMNGSGAPMNLNNNLNPMFLGPLNPVNPIQMNSQSSVKPLPINPDDLYVSVHGMPFSAMENDVRDFFHGLRVDAVHLLKDHVGRNNGNGLVKFLSPQDTFEALKRNRMLMIQRYVEVSPATERQWVAAGGHITFKQNMGPSGQTHPPPQTLPRSKSPSGQKRSRSRSPHEAGFCVYLKGLPFEAENKHVIDFFKKLDIVEDSIYIAYGPNGKATGEGFVEFRNEADYKAALCRHKQYMGNRFIQVHPITKKGMLEKIDMIRKRLQNFSYDQREMILNPEGDVNSAKVCAHITNIPFSITKMDVLQFLEGIPVDENAVHVLVDNNGQGLGQALVQFKNEDDARKSERLHRKKLNGREAFVHVVTLEDMREIEKNPPAQGKKGLKMPVPGNPAVPGMPNAGLPGVGLPSAGLPGAGLPSTGLPGSAITSAGLPGAGMPSAGIPSAGGEEHAFLTVGSKEANNGPPFNFPGNFGGSNAFGPPIPPPGLGGGAFGDARPGMPSVGNSGLPGLGLDVPGFGGGPNNLSGPSGFGGGPQNFGNGPGSLGGPPGFGSGPPGLGSAPGHLGGPPAFGPGPGPGPGPGPIHIGGPPGFASSSGKPGPTVIKVQNMPFTVSIDEILDFFYGYQVIPGSVCLKYNEKGMPTGEAMVAFESRDEATAAVIDLNDRPIGSRKVKLVLG”, which “soluble on expression in E. coli” value is on record?
Answer: Its value is “soluble”.

Question: For “MGSDKIHHHHHHMLLDTNIFSSFEDYSDISGKLNELSRRLNPKSILLKHPKSIEYLNTLDEDTKRILLSKLAFCDLLNDYPSPINDLEFNTNVGYLKGTNNDLENNLLYAVYTNSVTYLITENRMIHQKSTKLGLKDRVLYLNEALDFFKEFYSIQKRQILPQIKQRPITKVDVDDQIFDSLREEYPEFNNWYNEKAHLGRECWCYIKESGKLGAVLIFNGEDFDVIKTDPLLPEKRRFKICTFKVDQVGYKLGELLLKKAFDYCIDNSITETYLTHFAKSEFDYLVNLITEYGFIDIGTNENGENVFFKDLNPTPNQLMFCDYKDIFKKYYPLFYDGNRVKKLVVPIRPQYHEKLFTDYVKRTSITLNEYFGDFIIEGNTIKKAYISHSPIKNLKKGDILLFYRSEDHKELTSLGVLEEFKTNLTSPEEIINMVGKRTVYSSREIEEIVKKPASVMIFTMHLHLKSPIPLTVLKENNILKGPPQTITEITHGAYEKIRDLGGINDNLTIH”, which “soluble on expression in E. coli” value is on record?
Answer: The value was “not soluble”.

Question: With “MSLRFALTPGEPAGIGPDLCLLLARSAQPHPLIAIASRTLLQERAGQLGLAIDLKDVSPAAWPERPAKAGQLYVWDTPLAAPVRPGQLDRANAAYVLETLTRAGQGCLDGHFAGMITAPVHKGVINEAGIPFSGHTEFLADLTHTAQVVMMLATRGLRVALATTHLPLREVADAISDERLTRVARILHADLRDKFGIAHPRILVCGLNPHAGEGGHLGREEIEVIEPCLERLRGEGLDLIGPLPADTLFTPKHLEHCDAVLAMYHDQGLPVLKYKGFGAAVNVTLGLPIIRTSVDHGTALDLAGSGRIDSGSLQVALETAYQMAASRC” as the sequence, how does the “soluble on expression in E. coli” value read?
Answer: The value was “soluble”.

Question: Which “soluble on expression in E. coli” value does the source give for “NNDSWKPWSLPLSGKIIYLDPGHGGPDGGAVGGKLLEKDVTLEVAFRVRDYLQEQGALVIMTRESDTDLAPEGTKGYSRRKAEDLRQRVKLINHSEAELYISIHLNAIPSQKWSGAQSFYYGKYAENEKVAKYIQDELRRNLENTTRKAKRIHGIYLMQNVTKPGALIEVGFLSNPSEATLLGKPKYQDKVASSIYKGILRYFTEKGDPPE” here?
Answer: Its value is “not soluble”.

Question: Which “soluble on expression in E. coli” value does the source give for “MQPLERSLTGAVGAALAAAGLRSRSGLEKVVLTGLGAGLIAVAARGQNPLATALKIEQNDEGETVVRDAVTIGKPAEQLYAVWRDLPGLPLLMTHLRSVEVLDDKRSRWTVEAPAPLGTVSWEAELTADEPGKRIAWRSLPGARIENSGEVLFRPAPGARGTEVVVRLTYRPPGGSAGAVIARMFNQEPSQQLRDDLMRFKREQELGLEHHHHHH” here?
Answer: Its value is “not soluble”.

Question: For “MTQAIKRVGVTDVVLRDAHQSLFATRLRIDDMLPIAQQLDQIGYWSLECWGGATFDSCIRFLGEDPWQRLRLLKQAMPNTPLQMLLRGQNLLGYRHYADDVVDTFVERAVKNGMDVFRVFDAMNDVRNMQQALQAVKKMGAHAQGTLCYTTSPVHNLQTWVDVAQQLAELGVDSIALKDMAGILTPYAAEELVSTLKKQVDVELHLHCHSTAGLADMTLLKAIEAGVDRVDTAISSMSGTYGHPATESLVATLQGTGYDTGLDIAKLEQIAAYFRDVRKKYHAFEGMMKGSDARILVAQVPGGMLTNMESQLKQQNALDKLDLVLEEIPRVREELGFLPLVTPTSQIVGTQAVINVVLGERYKTITKETSGVLKGEYGKTPAPVNTELQARVLAGAEAITCRPADLIAAEMPTLQDRVLQQAKEQHITLAENAIDDVLTIALFDQVGWKFLANRHNLEHHHHHH”, which “soluble on expression in E. coli” value is on record?
Answer: Its value is “soluble”.

Question: Which “soluble on expression in E. coli” value does the source give for “MSLGSQGSGLEQSSFQWSPSGRRTGSLYCRVGIGFHLQIYPDGKVNGSHEANMLSVLEIFAVSQGIVGIRGVFSNKFLAMSKKGKLHASAKFTDDCKFRERFQENSYNTYASAIHRTEKTGREWYVALNKRGKAKRGCSPRVKPQHISTHFLPRFKQSEQPELSFTVTVPEKEGHHHHHH” here?
Answer: The value was “not soluble”.

Question: Which “soluble on expression in E. coli” value does the source give for “MQGLTMDDISLSIARNMFHLQVYESDGVRFEDLFSKIMYYKSPDFQQVKPYGNIGDRKNDGFIKGQGVYYQVYAPEDASNNVLAAVNKIKDDFEGLRDYWHDICPIKKYYFVLNDKYKGSLPQLHKELIVLQSDFNLIDTGVIVAKDLERELFNLPDDMIRSVVGHLPDIDHEEYMFVSGFTCFISAWINFEKIARHKVFSAKQPNRPLFIGKVVNALVKNKIISRQDATFIKKITEVRNSLVHGVSMLVPKKNEIDMLIFITEKIKPAGVCRLD” here?
Answer: The value was “not soluble”.

Question: For “MHHHHHHSSGVDLGTENLYFQSNAMLLPTDLSENSFKVLEYLGDFKKVGVEEIGVLFVINLTKLSTVSGGIDIDHYIDEMSEKAEEVLPEVAQKIEAAGIKAEVIKPFPAGDPVVEIIKASENYSFIAMGSRGASKFKKILLGSVSEGVLHDSKVPVYIFKHDMVVNSLFDRVLVAYDFSKWADRALEYAKFVVKKTGGELHIIHVSEDGDKTADLRVMEEVIGAEGIEVHVHIESGTPHKAILAKREEINATTIFMGSRGAGSVMTMILGSTSESVIRRSPVPVFVCKRGDDE”, which “soluble on expression in E. coli” value is on record?
Answer: The value was “soluble”.

Question: Which “soluble on expression in E. coli” value does the source give for “IIGQVDEISTTDLIEEEENAVLITAEGYAKRMSLEEFRVQSRGGVGVIGASVSPGDEIAVFRICNSTDRLLIFTNTGRAFWINAYEIPKMDRTARGTTLKRLIRLENGEKVVSALGVKDF” here?
Answer: The value was “soluble”.
